In patent US7202329:

Molecular target: yeast two-hybrid activation domain-Tsg101 construct (full-length Tsg101) (human) (UniProt Q99816)
Experiment: cell-based or functional assay

Chain of yeast two-hybrid activation domain-Tsg101 construct (full-length Tsg101) (human) (Q99816 whole entry, the tested form may be a part): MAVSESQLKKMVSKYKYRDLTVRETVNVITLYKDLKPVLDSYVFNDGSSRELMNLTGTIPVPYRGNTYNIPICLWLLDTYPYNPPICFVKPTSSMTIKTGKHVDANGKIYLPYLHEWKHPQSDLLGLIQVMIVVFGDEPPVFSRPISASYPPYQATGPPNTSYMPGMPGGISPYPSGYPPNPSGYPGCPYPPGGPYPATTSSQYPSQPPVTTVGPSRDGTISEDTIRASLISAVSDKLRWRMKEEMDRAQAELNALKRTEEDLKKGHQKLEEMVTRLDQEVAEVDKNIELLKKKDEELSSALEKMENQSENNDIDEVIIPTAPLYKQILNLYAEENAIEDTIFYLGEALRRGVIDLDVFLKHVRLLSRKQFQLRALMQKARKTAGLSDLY

yeast two-hybrid DNA binding domain-HIV1 GAGp6 construct, wild type (from UniProt P04386 1-147; P12493 449-500)
β-galactosidase activity, two-hybrid liquid culture assay (fold over background): > 300
